Our source for the % residual amidolytic activity, 16.6 µM inhibitor, 20 h and % residual amidolytic activity, 42.3 µM inhibitor, 20 h values is US20030018175A1.

B1: wild-type plasma APC (enzyme)
chain: ANSFLEELRHSSLERECIEEICDFEEAKEIFQNVDDTLAFWSKHVDGDQCLVLPLEHPCASLCCGHGTCIDGIGSFSCDCRSGWEGRFCQREVSFLNCSLDNGGCTHYCLEEVGWRRCSCAPGYKLGDDLLQCHPAVKFPCGRPWKRMEKKRSHLLIDGKMTRRGDSPWQVVLLDSKKKLACGAVLIHPSWVLTAAHCMDESKKLLVRLGEYDLRRWEKWELDLDIKEVFVHPNYSKSTTDNDIALLHLAQPATLSQTIVPICLPDSGLAERELNQAGQETLVTGWGYHSSREKEAKRNRTFVLNFIKIPVVPHNECSEVMSNMVSENMLCAGILGDRQDACEGDSGGPMVASFHGTWFLVGLVSWGEGCGLLHNYGVYTKVSRYLDWIHGHIRDKEAPQKSWAP
modifications: two chains: light 1-155, heavy 170-419

The assay addresses human alpha-1-antitrypsin (Sigma) (human) (UniProt P01009). As to the kind of experiment: cell-based or functional assay.
UniProt P01009, sequence (P01009 25-418 limits assumed): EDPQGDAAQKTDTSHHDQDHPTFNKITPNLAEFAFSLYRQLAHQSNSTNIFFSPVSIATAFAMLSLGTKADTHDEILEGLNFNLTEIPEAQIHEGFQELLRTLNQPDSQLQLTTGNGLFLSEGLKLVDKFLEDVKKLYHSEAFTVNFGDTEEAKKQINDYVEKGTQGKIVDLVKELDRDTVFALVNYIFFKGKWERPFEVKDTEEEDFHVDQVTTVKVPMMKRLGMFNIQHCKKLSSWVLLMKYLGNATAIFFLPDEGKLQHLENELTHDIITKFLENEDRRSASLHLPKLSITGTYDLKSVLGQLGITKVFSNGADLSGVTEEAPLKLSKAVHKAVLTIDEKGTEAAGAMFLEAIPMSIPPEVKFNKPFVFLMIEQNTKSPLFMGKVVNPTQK
Take APC conjugate D189N+K191T (enzyme): the % residual amidolytic activity, 16.6 µM inhibitor, 20 h at 37 °C was 90% and the % residual amidolytic activity, 42.3 µM inhibitor, 20 h at 37 °C turned out to be 77%.
In turn, APC conjugate D214N (enzyme) gave a % residual amidolytic activity, 16.6 µM inhibitor, 20 h at 37 °C of 80% and a % residual amidolytic activity, 42.3 µM inhibitor, 20 h at 37 °C of 81%.
The corresponding values for APC conjugate E307N+E309T (enzyme) are 10% and under 1%.
With APC conjugate K191N+K193T (enzyme), the % residual amidolytic activity, 16.6 µM inhibitor, 20 h at 37 °C was 59% and the % residual amidolytic activity, 42.3 µM inhibitor, 20 h at 37 °C was 24%.
The corresponding values for APC conjugate K217N+L219T (enzyme) are 20% and 4%.
The corresponding values for APC conjugate L386N+H388T (enzyme) are 68% and 44%.
The corresponding values for APC conjugate M338N (enzyme) are 38% and 12%.
The molecule APC conjugate S305N+E307T (enzyme) registered a % residual amidolytic activity, 16.6 µM inhibitor, 20 h at 37 °C of 42% and a % residual amidolytic activity, 42.3 µM inhibitor, 20 h at 37 °C of 9%.
Molecule APC conjugate S336N+M338T (enzyme) gave a % residual amidolytic activity, 16.6 µM inhibitor, 20 h at 37 °C of 72% and a % residual amidolytic activity, 42.3 µM inhibitor, 20 h at 37 °C of 40%.
The corresponding values for APC conjugate T253N+D255T (enzyme) are 56% and 38%.
Regarding “APC variant D189N+K191N (control) (enzyme)”, the % residual amidolytic activity, 16.6 µM inhibitor, 20 h at 37 °C turned out to be 12% and the % residual amidolytic activity, 42.3 µM inhibitor, 20 h at 37 °C is under 1%.
The corresponding values for APC variant D214A (control) (enzyme) are 21% and 1%.
APC variant K251N (enzyme) yielded a % residual amidolytic activity, 16.6 µM inhibitor, 20 h at 37 °C of 62% and a % residual amidolytic activity, 42.3 µM inhibitor, 20 h at 37 °C of 53%.
The corresponding values for APC variant M338A (control) (enzyme) are 9% and 2%.
On the same counts, the results for APC variant S190N+K192T (enzyme) are 28% and 5%.
On the same counts, the results for APC variant S252N (enzyme) are 62% and 34%.
Take APC variant Y302N (enzyme): the % residual amidolytic activity, 16.6 µM inhibitor, 20 h at 37 °C is 50% and the % residual amidolytic activity, 42.3 µM inhibitor, 20 h at 37 °C turned out to be 30%.
On the same counts, the results for wild-type COS 7 APC (enzyme) are 7% and under 1%.
The corresponding values for B1 are 10% and 2%.
